Assay results as given in IntAct's records for PubMed 24358019.

B1: RNA polymerase sigma factor RpoH (Escherichia coli (strain K12)), P0AGB3 (parent)
chain: MTDKMQSLALAPVGNLDSYIRAANAWPMLSADEERALAEKLHYHGDLEAAKTLILSHLRFVVHIARNYAGYGLPQADLIQEGNIGLMKAVRRFNPEVGVRLVSFAVHWIKAEIHEYVLRNWRIVKVATTKAQRKLFFNLRKTKQRLGWFNQDEVEMVARELGVTSKDVREMESRMAAQDMTFDLSSDDDSDSQPMAPVLYLQDKSSNFADGIEDDNWEEQAANRLTDAMQGLDERSQDIIRARWLDEDNKSTLQELADRYGVSAERVRQLEKNAMKKLRAAIEA
partner: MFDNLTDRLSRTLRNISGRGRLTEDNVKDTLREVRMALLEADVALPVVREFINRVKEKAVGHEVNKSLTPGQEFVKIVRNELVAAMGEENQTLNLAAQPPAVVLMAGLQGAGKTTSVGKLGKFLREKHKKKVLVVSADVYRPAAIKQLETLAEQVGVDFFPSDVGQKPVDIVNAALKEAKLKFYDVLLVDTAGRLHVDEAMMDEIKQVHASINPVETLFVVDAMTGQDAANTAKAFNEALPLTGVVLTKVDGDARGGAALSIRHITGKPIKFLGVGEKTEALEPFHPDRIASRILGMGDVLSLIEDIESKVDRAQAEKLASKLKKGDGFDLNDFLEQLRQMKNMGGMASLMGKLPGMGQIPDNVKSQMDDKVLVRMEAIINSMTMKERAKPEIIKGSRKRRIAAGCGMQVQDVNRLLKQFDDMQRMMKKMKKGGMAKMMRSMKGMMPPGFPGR

Variants of: B1
Conditions: with srp54_ecoli ffh

effect of a mutation on the interaction | Variant
decreasing interaction strength | I54N
